Assays:
HLA-C*05:01 = assay: IEDB peptide-MHC binding, purified MHC/direct/fluorescence; filed as Kd, often an IC50 or EC50 that approximates it; ≥ and ≤ were set here for values at or beyond the usual limits of such assays; details: source organism: Clostridium novyi NT
HLA-C*03:03 = assay: as above; details: source organism: Clostridium novyi NT
HLA-C*14:02 [1] = assay: IEDB peptide-MHC binding, purified MHC/competitive/fluorescence; filed as Kd, often an IC50 or EC50 that approximates it; ≥ and ≤ were set here for values at or beyond the usual limits of such assays; details: source organism: Clostridium novyi NT
HLA-C*06:02 = assay: as above; details: source organism: Clostridium novyi NT
HLA-B*83:01 = assay: as above
HLA-B*15:42 = assay: as above
HLA-B*27:20 = assay: as above
HLA-B*45:06 = assay: as above
HLA-B*46:01 [2] = assay: as above; details: source organism: Clostridium novyi NT
HLA-A*32:07 = assay: as above
HLA-A*68:23 = assay: as above
HLA-A*32:15 = assay: as above
HLA-C*14:02 [3] = assay: IEDB peptide-MHC binding, purified MHC/direct/fluorescence; filed as Kd, often an IC50 or EC50 that approximates it; ≥ and ≤ were set here for values at or beyond the usual limits of such assays; details: source organism: human gammaherpesvirus 4
HLA-C*07:02 = assay: as above; details: source organism: human gammaherpesvirus 4
HLA-C*15:02 = assay: as above; details: source organism: human gammaherpesvirus 4
HLA-B*73:01 = assay: as above
HLA-C*04:01 = assay: IEDB peptide-MHC binding, purified MHC/competitive/fluorescence; filed as Kd, often an IC50 or EC50 that approximates it; ≥ and ≤ were set here for values at or beyond the usual limits of such assays; details: source organism: Mycobacterium tuberculosis CDC1551
HLA-B*57:01 = assay: IEDB peptide-MHC binding, purified MHC/direct/fluorescence; filed as Kd, often an IC50 or EC50 that approximates it; ≥ and ≤ were set here for values at or beyond the usual limits of such assays
HLA-A*26:01 = assay: as above
HLA-B*27:03 = assay: as above
HLA-A*02:06 = assay: as above; details: source organism: Cryptosporidium parvum Iowa II
HLA-A*02:12 = assay: as above
HLA-A*02:01 = assay: as above
HLA-B*51:01 = assay: as above
HLA-A*03:01 = assay: as above
HLA-B*46:01 [4] = assay: as above
HLA-B*15:17 = assay: as above
HLA-B*18:01 = assay: as above; details: source organism: Bacillus cereus H3081.97
HLA-B*39:01 = assay: as above; details: source organism: Bacillus cereus H3081.97
HLA-B*15:01 = assay: as above
HLA-A*02:11 = assay: as above; details: source organism: Bacillus cereus H3081.97
HLA-A*02:03 = assay: as above; details: source organism: Bacillus cereus H3081.97
HLA-A*29:02 = assay: as above; details: source organism: Bacillus cereus H3081.97
HLA-A*02:19 = assay: as above; details: source organism: Bacillus cereus H3081.97
HLA-A*02:16 = assay: as above; details: source organism: Bacillus cereus H3081.97
HLA-A*11:01 = assay: as above; details: source organism: Cryptosporidium parvum
HLA-B*40:01 = assay: as above; details: source organism: Cryptosporidium parvum
HLA-A*01:01 = assay: as above; details: source organism: Cryptosporidium parvum
HLA-B*44:02 = assay: as above; details: source organism: Cryptosporidium parvum
HLA-B*58:01 = assay: as above; details: source organism: Cryptosporidium parvum
HLA-B*07:02 = assay: as above; details: source organism: Cryptosporidium parvum
HLA-A*31:01 = assay: as above; details: source organism: Cryptosporidium parvum
HLA-A*69:01 = assay: as above; details: source organism: Cryptosporidium parvum
HLA-B*08:01 = assay: as above; details: source organism: Cryptosporidium parvum
HLA-B*27:05 = assay: as above; details: source organism: Cryptosporidium parvum
HLA-A*30:01 = assay: as above; details: source organism: Cryptosporidium parvum
[5] = source organism: Clostridium novyi NT
[6] = source organism: human gammaherpesvirus 4
[7] = source organism: Mycobacterium tuberculosis CDC1551
[8] = source organism: Cryptosporidium parvum Iowa II
[9] = source organism: Bacillus cereus H3081.97
[10] = source organism: Cryptosporidium parvum

ASMDNTSPM
Kd (HLA-C*05:01): ≥ 20 µM | Kd (HLA-C*03:03): ≤ 1 nM | Kd (HLA-C*14:02 [1]): 36.4 nM | Kd (HLA-C*06:02): 570 nM | Kd (HLA-B*83:01; [5]): 147 nM | Kd (HLA-B*15:42; [5]): ≥ 5 µM | Kd (HLA-B*27:20; [5]): 239 nM | Kd (HLA-B*45:06; [5]): ≥ 5 µM | Kd (HLA-B*46:01 [2]): 8.6 nM | Kd (HLA-A*32:07; [5]): 26.9 nM | Kd (HLA-A*68:23; [5]): 29.7 nM | Kd (HLA-A*32:15; [5]): 223 nM

MMAKSNSPF
Kd (HLA-C*14:02 [3]): 8 nM | Kd (HLA-C*07:02): 3.16 µM | Kd (HLA-C*15:02): ≥ 20 µM | Kd (HLA-B*83:01; [6]): ≥ 5000 nM | Kd (HLA-B*15:42; [6]): ≥ 5 µM | Kd (HLA-B*27:20; [6]): 48.7 nM | Kd (HLA-B*45:06; [6]): ≥ 5 µM | Kd (HLA-A*32:07; [6]): 100 nM | Kd (HLA-A*68:23; [6]): 43.1 nM | Kd (HLA-A*32:15; [6]): 42.8 nM

FQANMFLTL
Kd (HLA-B*73:01; source organism: Bacillus anthracis): ≥ 20 µM

RPREATIIY
Kd (HLA-B*83:01; [7]): ≥ 5000 nM | Kd (HLA-B*15:42; [7]): ≥ 5 µM | Kd (HLA-B*45:06; [7]): ≥ 5 µM | Kd (HLA-C*04:01): ≥ 5 µM

KQMSQPYAV
Kd (HLA-B*57:01; [8]): ≥ 20 µM | Kd (HLA-A*26:01; [8]): ≥ 20 µM | Kd (HLA-B*27:03; [8]): ≥ 20 µM | Kd (HLA-A*02:06): ≤ 1 nM | Kd (HLA-A*02:12; [8]): ≤ 0.001 µM | Kd (HLA-A*02:01; [8]): 0.002 µM | Kd (HLA-B*51:01; [8]): ≥ 20 µM | Kd (HLA-A*03:01; [8]): ≥ 20 µM | Kd (HLA-B*46:01 [4]; [8]): ≥ 20 µM | Kd (HLA-B*15:17; [8]): ≥ 20 µM

YSTVRDLFL
Kd (HLA-B*18:01): ≥ 20 µM | Kd (HLA-B*57:01; [9]): ≥ 20 µM | Kd (HLA-A*26:01; [9]): ≥ 20 µM | Kd (HLA-B*27:03; [9]): ≥ 20 µM | Kd (HLA-B*39:01): ≥ 20 µM | Kd (HLA-B*15:01; [9]): ≥ 20 µM | Kd (HLA-A*02:11): ≥ 20 µM | Kd (HLA-A*02:12; [9]): ≥ 20 µM | Kd (HLA-A*02:01; [9]): ≥ 20 µM | Kd (HLA-B*51:01; [9]): ≥ 20 µM | Kd (HLA-A*02:03): ≥ 20 µM | Kd (HLA-A*03:01; [9]): ≥ 20 µM | Kd (HLA-B*46:01 [4]; [9]): ≥ 20 µM | Kd (HLA-A*29:02): ≥ 20 µM | Kd (HLA-A*02:19): ≥ 20 µM | Kd (HLA-A*02:16): ≥ 20 µM | Kd (HLA-B*15:17; [9]): ≤ 0.001 µM

KHNSAESAK
Kd (HLA-A*11:01): ≥ 20 µM | Kd (HLA-A*26:01; [10]): ≥ 20 µM | Kd (HLA-B*40:01): ≥ 20 µM | Kd (HLA-A*01:01): ≥ 20 µM | Kd (HLA-B*73:01; [8]): ≥ 20 µM | Kd (HLA-B*44:02): ≥ 20 µM | Kd (HLA-B*58:01): ≥ 20 µM | Kd (HLA-B*07:02): ≥ 20 µM | Kd (HLA-B*15:01; [10]): ≥ 20 µM | Kd (HLA-A*31:01): ≥ 20 µM | Kd (HLA-A*69:01): ≥ 20 µM | Kd (HLA-B*08:01): ≥ 20 µM | Kd (HLA-A*02:01; [10]): ≥ 20 µM | Kd (HLA-B*27:05): ≥ 20 µM | Kd (HLA-A*03:01; [10]): 12.3 µM | Kd (HLA-A*30:01): 11.9 µM
